According to publication PMC10783497:
pKd: −log10 of the molar value. “And” between values parts separate entries of the source, which are not always exact repeats. Equal entries are not always repeated.

Target: streptavidin (on Sera-Mag magnetic microparticles) (UniProt P22629)
Experiment: magnetic bead pull-down, FAM fluorescence of eluted aptamer
Details: 1X PBS, or 2 M NaCl, or 2 M CDHP with 1X PBS; 90 min at room temperature; elution in 250 mM NaCl, 500 mM Tris-HCl pH 8.5

streptavidin (on Sera-Mag magnetic microparticles), sequence (P22629 25-183): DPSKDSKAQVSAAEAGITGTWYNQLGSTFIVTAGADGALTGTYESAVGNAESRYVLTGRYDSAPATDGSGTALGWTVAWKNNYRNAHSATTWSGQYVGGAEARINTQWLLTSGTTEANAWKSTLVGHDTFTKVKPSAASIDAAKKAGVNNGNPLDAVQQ

ATTGACCGCTGTGTGACGCAACACTCAAT [St-21-1 aptamer]
pKd: 7.02 and 7.12 and 7.15
